Experiment: yeast display, Sf9 membrane polyspecificity reagent, FACS + sequencing; frameworks hold sequencing errors
Procedure, shortened: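 Galactose-induced (36–48 hours) yeast carrying a synthetic nanobody display library were exposed to 10% biotinylated, detergent-solubilized Sf9 membrane reagent at 4 °C for 1 hour. FACS followed streptavidin microbead enrichment, using low and high (top ~1%) gates for expression (anti-HA) and reagent binding (streptavidin). Colony PCR, MiSeq 2 × 250 sequencing and CDR-length filtering followed. Labels for polyreactivity reflect the gate of origin.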

Row | Sequence | polyreactivity (PSR sort gate)
1 | QVQLVESGGGLVQAGGSLRISCAASGITLNVYAMGWYRQAPGKERELVAAISYNGGRTYYADSVKGRFTISRDNAKNTVYLQMNSLKPEDTAVYYCAAQWPWGPYDYWGQGTQVTVSS | high polyreactivity
2 | QVQLVESGGGLVQAGGILRLSCAASGRTFSRYAMGWYRQAPGKERELVAAITWDGGSTYYADSVKGRFTISRDNAKNSVYLLMNSLKPEDTAVYYFAARYIRNRMNYWGQGTQVTVSS | high polyreactivity
3 | QVQLVESGGGLVQAGGSLRLSCAASGRTLGVNAMGWYRQAPGKERELVAAISTRGTTTNYADSVKGRFTISRDNAKNTVYLQMNSLKPEDTAVYYCATRTYRTYPRYDYWGQGTQVTVSS | high polyreactivity
4 | QVQLVESGGGLVQARGSLRLSCAASGSTFPYYTMGWYRQAHWKERELVAAITTRGGGTYYADSVKGRFTISRDNAKNTVYLKMNSLKPEDTAVYYCAAKTIYDTRGIRHYYWGKGTQVTVSS | high polyreactivity
5 | QLQLVESGGVLVQAGGSLRLSCAASGLTFAYYAMGSYRQAPGKERELVAAISWNGGRTYYAYSVKGRFTISRDNAKNTVYLQMNSLKPEDTAVYYCATRFYRPRDGLYDYWGQGTQVTVSS | high polyreactivity
6 | QVQLVESGGGLVQAGGSLRLSCAASGSTFTSYTMGWYRQAPGKERELVARITRGGGSTYYADSVKGRFTISRDNAKNTVYLQMNSLKPEDTRSSPVLSYDYWGQGTQVTVSS | low polyreactivity
7 | QVQLVESGGGLVQAGGSLRLSCAASGFTIGYYAMGWYRQAPGKERELVAAISWSGGRTYYAYSVKGRFTISRDNAKNTVYLQMNSLKPEDTAVYYCAADGQQTYSGYDYWGQGTQVTVSS | high polyreactivity
8 | QVQLQESGGGLVQAGGSLRLSCAASGSIFDYVSMGWYRQAPREERELVVTITLGSNTYYADSVKGRFTISSDIGKNTVYLQMNSLNPEDTAVYYCAASALWGYVYPYWGLGTQVTVSS | high polyreactivity
9 | QVQLVESGGGLVQAGGSLRLTCDASGRTFYWNAMGWYRQAPGKERELVAAISNCGTTTYYADSVKGRFTISRDNAKNTVYLQLNSLKPEDTAVYYCAADIWYFDYEYWGQGTQVTLSS | high polyreactivity
10 | QVQLVESGGGLVQAGGSLRLSCAASGSTLVKYAMGWYRQAPGKERELVAAISWSGGRTYYADSVKGRFTISRDNAKNTVYLQMNSLKPEDTAVYYCNAEFRGRPPSFAIKYDYWGQGTQVTVSS | high polyreactivity
11 | QVHLVESGGGLVQAGGSLRLSCAASGRTFDHNTMGWYRQAPGKERELVAAISWSGGTTYYADSVKGRFTISRDNAKNTVYLQMNSLKPEDTAVYYCAADRSPGSYGYQYDYWGQGTQVTVSS | low polyreactivity
12 | QVQLVESGGGLFQAGGSLRLSCAASGIIFRYYAMGWSRQAPGKEREFVASINFSGSSTYYADSVKGRFTISRDKAKNTVYLQMNSLKPEDTAVYYCAAGRRWLYDYWGQGTQVTVSS | high polyreactivity
13 | QVQLVESGGGLVQAGGSLRLSCAASGFTFGPYVKGWYRQAPGKERELVAAISKSGGSTYYADSVKGRFTISRDYAKNTVYLQMNSLKPEDTAVYYCATDYLGGGKRYYYWGQGTQVTVSS | high polyreactivity
14 | QVQLLESGGGLVQAGGSLPVSCAASGSTFDTNDMVWYRQAPGKERELVAAISSGGDYADSVKGRFTISRDNAKNTVYLQMNSLKPEDTAVYYCAKDDTKWGQGTQVTVSS | low polyreactivity
15 | QVELVESGGGLVQAGGSLRLICAASGFTYTWNAMGWYRQAPGKERELVAGITRGGSTNYADSVKGRFTISRDNAKNTVYLQINSLKPEDTAVYYCNVSFYFHHAGYDFWGQGTQVTVSS | low polyreactivity
16 | QVQLVESGGGLVQAGGSLRLSCAASGGTFRRYTMGWYRQAPGKERELVAVISRSGGSTYYADSVKGRFTISRDNAKNTVYLQMNSLKPEDTAVYYCAVVYYNGYDWGQGTQVTVSS | high polyreactivity
17 | QVQLVESGGALVQAGGSLRLTCAASGSIYYVNAMGWYRQAPGKERELVAAISVRGGRTYYADSVKGRFTISRDNAKNTFYLQMNSLKPEDTEVYYCATRISTVGRYDYWGQGTQVTVSS | high polyreactivity
18 | QVQLVESGGGLVQAGGSLRLSCAASGFTFNSYAMGWYRQAPGKERELVAAITSSGGRTYYADSVKGRFTISRDNAKNTVYLQMNSLKPEDTAVYYCAARRGGKVATIYDYWGQGTQVTVSS | low polyreactivity

Reference: the nanobody polyreactivity screen of Harvey et al. (2022)
